Assay [1] deals with human epidermal growth factor receptor (EGFR) (human) (UniProt P00533). Nature of the assay: cell-based or functional assay.
Assay [2] has as its target EGFRvIII (UniProt P00533). As to the kind of experiment: cell-based or functional assay.

On to “chimeric antigen receptor 806-28BBZ, scFv(EGFR)-CD28-CD28-CD137-CD3 zeta (from UniProt P01732 138-182; P10747 153-220; Q07011 214-255; P20963 52-164)”, for which, in assay [1], the Cytotoxicity % (LDH release), BxPC-3 cells, effector to target 1:1 was determined as 49%; the Cytotoxicity % (LDH release), BxPC-3 cells, effector to target 1:3 worked out at 24%; the Cytotoxicity % (LDH release), BxPC-3 cells, effector to target 3:1 is 70%; the Cytotoxicity % (LDH release), CFPAC-1 cells, effector to target 3:1 came out at 40%. Besides, in assay [1], the Cytotoxicity % (LDH release), PANC-1 cells, effector to target 1:1 was determined as 28%; the Cytotoxicity % (LDH release), PANC-1 cells, effector to target 3:1 was found to be 65%; the Cytotoxicity % (LDH release), U87-EGFR cells, effector to target 1:1 was determined as 49%; the Cytotoxicity % (LDH release), U87-EGFR cells, effector to target 1:3 was determined as 29%. Besides, in assay [1], the Cytotoxicity % (LDH release), U87-EGFR cells, effector to target 3:1 was determined as 98%; the Cytotoxicity % (LDH release), U87 cells, effector to target 1:1 was -14%; the Cytotoxicity % (LDH release), U87 cells, effector to target 1:3 was -25%; the Cytotoxicity % (LDH release), U87 cells, effector to target 3:1 is -2%. In assay [2], this substance had a Cytotoxicity % (LDH release), U87-EGFRvIII cells, effector to target 1:1 of 41%; a Cytotoxicity % (LDH release), U87-EGFRvIII cells, effector to target 3:1 of 81%; a Cytotoxicity against target cells % (LDH release), U87-EGFRvIII cells, effector to target 5:1, 20 h of 85%.
“chimeric antigen receptor 806-Z, scFv(EGFR)-CD8-CD3 zeta (from UniProt P01732 138-203; P20963 52-164)”: in assay [1], the Cytotoxicity % (LDH release), BxPC-3 cells, effector to target 1:1 came out at 24%; the Cytotoxicity % (LDH release), BxPC-3 cells, effector to target 1:3 worked out at 14%; the Cytotoxicity % (LDH release), BxPC-3 cells, effector to target 3:1 is 44%; the Cytotoxicity % (LDH release), CFPAC-1 cells, effector to target 1:1 was 35%. Further, in assay [1], the Cytotoxicity % (LDH release), CFPAC-1 cells, effector to target 1:3 turned out to be 12%; the Cytotoxicity % (LDH release), CFPAC-1 cells, effector to target 3:1 is 43%; the Cytotoxicity % (LDH release), PANC-1 cells, effector to target 1:1 came to 34%; the Cytotoxicity % (LDH release), PANC-1 cells, effector to target 1:3 came to 18%. In assay [2], the Cytotoxicity against target cells % (LDH release), U87-EGFRvIII cells, effector to target 5:1, 20 h turned out to be 56% and the cytotoxicity against tumor cells U87-EGFRvIII (LDH release) came to 55.5%.

(Values after patent publication US20170159025A1.)
